Test results from patent US5851983A, “Elastase inhibitory polypeptide and process for production thereof by recombinant gene technology” (Teijin Limited, priority 1987, dated 1998).

Tests used:
[1] = target: T1, polymorphonuclear leucocyte elastase from human sputum (Homo sapiens, UniProt P08246); experiment: Effect of serum albumin on elastase inhibitory activity (Example 13); assay type: biochemical; details: in the presence of 0.8% or 8% calf serum albumin
T1 construct: Polymorphonuclear leukocyte elastase from human sputum (EPC Co; Funakoshi Yakuhin); purchased EPC Co. (via Funakoshi Yakuhin); host or cells: human sputum
T1 sequence (P08246 30-267): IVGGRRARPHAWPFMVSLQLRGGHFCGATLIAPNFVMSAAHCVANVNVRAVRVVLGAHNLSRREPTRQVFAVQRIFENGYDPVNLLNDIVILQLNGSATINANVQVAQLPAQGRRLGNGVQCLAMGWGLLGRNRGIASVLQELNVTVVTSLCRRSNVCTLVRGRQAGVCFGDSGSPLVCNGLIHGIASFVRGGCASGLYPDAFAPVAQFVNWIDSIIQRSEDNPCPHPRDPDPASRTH
Description: The inhibitory activity of a active-form (Asn^55 -Ala^107) SLPI fragment polypeptide on polymorphonuclear leucocyte elastase from human sputum was measured by the same procedure as in Example 12 in the presence of 0.8% or 8% calf serum albumin.

[2] = target: T2, polymorphonuclear leukocyte elastase from human sputum (Homo sapiens, UniProt P08246); experiment: Thermal stability (Example 14); assay type: physicochemical; details: 50 mM Tris-HCl (pH 7.8), 50° C. for 2 hours
T2 construct: Polymorphonuclear leukocyte elastase from human sputum (EPC Co; Funakoshi Yakuhin); purchased EPC Co. (via Funakoshi Yakuhin); host or cells: human sputum
T2 sequence (P08246 30-267): T1 sequence (P08246 30-267)
Description: After a solution of an active-type (Asn^55 -Ala^107) SLPI fragment polypeptide in 50 mM Tris-HCl (pH 7.8) was treated at 50° C. for 2 hours, the inhibitory activity on polymorphonuclear leukocyte elastase from human sputum was measured.

[3] = target: T1, polymorphonuclear leucocyte elastase from human sputum; experiment: Treatment with polymorphonuclear leucocyte elastase from human sputum (Examples 27, 30); assay type: in vitro ADME; details: 37° C.; N-terminal sequencing of SDS-PAGE bands
Description: Polymorphonuclear leucocyte elastase from human sputum (EPC, Funakoshi Yakuhin) and SLPI were separately dissolved in a buffer (0.1M HEPES, 0.1M NaCl, 0.1% PEG 6000, pH 7.5) and the elastase solution was added to the SLPI solution, and the mixture was incubated at 37° C. Samples were taken as time elapsed, and to each sample were added Tris-HCl buffer (pH 6.8), SDS, 2-mercaptolethanol, glycerol, and Coomassie Brilliant Blue to final concentrations of 50 mM, 4 w/v %, 2 v/v %, 12 v/v % and 0.01 w/v % respectively. The mixture was subjected to SDS-polyacrylamide gel electrophoresis using Tricine (Sigma) as a polar buffer (Schagger, H., Anal. Biochem. 166, 368, 1987). After the electrophoresis, the gel was stained with Coomassie Brilliant Blue G-250, and decoloured with 50% (v/v) methanol/10% (v/v) acetic acid. […]
(3) Next, polypeptides thus generated were electrically transferred to a membrane (Immobilon-p^SQ Millipore) using a Milli Blot-SDE apparatus (Millipore). […] After drying, relevant bands were cut out, and the peptide was cleaved from the N-terminal using an Applied Biosystems Protein-Sequencer (Applied Biosystems; 477A), and after PTH-conversion, the resulting amino acid derivatives were analyzed by a PTH-Amino acid analyzer (Applied Biosystems, 120A) to determine the N-terminal amino acid sequence. […]

effect of calf serum albumin on elastase inhibitory activity [1]: had no effect on its activity
Substance: (Asn^55 -Ala^107) SLPI: polypeptide having an amino acid sequence starting with the 55th Asn and ending at the 107th Ala of SLPI (NPTRRKPGKCPVTYGQCLMLNPPNFCEMDGQCKRDLKCCMGMCGKSCVSPVKA)
elastase inhibitory activity after heat treatment (thermal stability) [2]: maintained at the same level
selective cleavage sites with elastase from human sputum [3]: cleaved at the site between Thr^57 -Arg^58
